Assay results published in the Human Domainome abundance scans (Beltran et al. 2025).
± gives the uncertainty stated by the source.

B1: Far upstream element-binding protein 1, residues 184 to 257; numbered along this chain, Q96AE4 (parent)
chain: GNAVQEIMIPASKAGLVIGKGGETIKQLQERAGVKMVMIQDGPQNTGADKPLRITGDPYKVQQAKEMVLELIRD

Variants of: B1
Experiment: abundance fitness (aPCA) (normalised: wild type 0, dead -1); higher = more abundant; growth selection in yeast, the domain comes from the species named
Details: Homo sapiens

Abundance fitness of substitutions, site by site:
Q40: R -0.053 ± 0.028, K -0.025 ± 0.041, L -0.076 ± 0.031, I -0.147 ± 0.065
N45: A -0.019 ± 0.034, I -0.029 ± 0.046, P -0.055 ± 0.04, D 0.013 ± 0.038, F 0.023 ± 0.05, Y -0.091 ± 0.044, M -0.055 ± 0.039, R -0.022 ± 0.029, V -0.057 ± 0.033, L -0.128 ± 0.033, S -0.057 ± 0.031, W -0.105 ± 0.042, E -0.024 ± 0.029, G -0.008 ± 0.026, K -0.008 ± 0.031, H -0.022 ± 0.052
I54: V -0.148 ± 0.033, T -0.723 ± 0.06, W -1.06 ± 0.073, P -1.08 ± 0.093, Q -0.902 ± 0.068, E -0.883 ± 0.053, G -0.913 ± 0.039, M -0.074 ± 0.037, F -0.175 ± 0.058, H -1.03 ± 0.12, A -0.807 ± 0.053, Y -1.19 ± 0.17, K -0.878 ± 0.067, R -1.06 ± 0.047, L -0.069 ± 0.034, D -0.829 ± 0.075, C -0.504 ± 0.054, S -0.522 ± 0.045, N -1.22 ± 0.15
K50: I -0.068 ± 0.048, Y 0.018 ± 0.054, C -0.057 ± 0.04, M -0.035 ± 0.04, P -0.202 ± 0.038, L 0.019 ± 0.03, R -0.005 ± 0.026, A -0.027 ± 0.033, G -0.201 ± 0.027, N -0.071 ± 0.049, E -0.202 ± 0.035, T -0.019 ± 0.034, D -0.525 ± 0.052, H -0.04 ± 0.049, S -0.068 ± 0.032, V -0.005 ± 0.031, W -0.058 ± 0.032
I39: K 0 ± 0.041, M 0.014 ± 0.04, V 0.006 ± 0.031, W -0.096 ± 0.036, R 0.006 ± 0.027, L -0.008 ± 0.032, Q -0.032 ± 0.04, P -0.061 ± 0.035, N 0.014 ± 0.051, S -0.02 ± 0.03, Y -0.08 ± 0.05, T -0.088 ± 0.036
G56: H -1.09 ± 0.13, W -1.22 ± 0.077, R -1.04 ± 0.044, K -0.942 ± 0.07, N -0.668 ± 0.098, I -1.14 ± 0.17, L -1.28 ± 0.072, C -1.08 ± 0.12, V -1.26 ± 0.079, Y -1.25 ± 0.17, F -0.971 ± 0.2, P -1.18 ± 0.073, T -1.12 ± 0.069, E -1.05 ± 0.076, S -1.02 ± 0.051, A -1.01 ± 0.05, Q -0.962 ± 0.071, D -0.803 ± 0.092
P43: L -0.053 ± 0.036, E -0.01 ± 0.04, C -0.049 ± 0.051, I -0.011 ± 0.067, D -0.055 ± 0.05, N -0.123 ± 0.063, M -0.016 ± 0.044, H 0.003 ± 0.063, F -0.079 ± 0.054, R -0.012 ± 0.03, W -0.022 ± 0.042, Y -0.003 ± 0.054, A 0.023 ± 0.039, G 0.05 ± 0.03, S 0.04 ± 0.038, K 0.064 ± 0.048, T -0.119 ± 0.044, Q -0.057 ± 0.045
T55: R -0.152 ± 0.027, N -0.138 ± 0.042, K -0.165 ± 0.034, I -0.023 ± 0.049, W -0.115 ± 0.037, D -0.111 ± 0.045, L -0.05 ± 0.032, F -0.062 ± 0.051, H -0.096 ± 0.054, V -0.047 ± 0.031, C -0.065 ± 0.045, Y -0.132 ± 0.054, M -0.008 ± 0.042, E -0.086 ± 0.032, S -0.053 ± 0.032, P -0.963 ± 0.058, Q -0.022 ± 0.038
P58: W -0.044 ± 0.038, Y -0.022 ± 0.056, A -0.012 ± 0.032, H -0.003 ± 0.068, R 0 ± 0.027, E -0.004 ± 0.034, T -0.002 ± 0.037, N -0.139 ± 0.057, L -0.068 ± 0.03, S -0.064 ± 0.033, G -0.034 ± 0.028, C -0.1 ± 0.047, M -0.014 ± 0.04, Q -0.079 ± 0.046, V -0.031 ± 0.032, K -0.016 ± 0.041
D41: A -0.077 ± 0.031, K -0.007 ± 0.04, E 0.009 ± 0.035, R -0.052 ± 0.028, L -0.095 ± 0.031, M -0.089 ± 0.045, V -0.023 ± 0.031, Y -0.139 ± 0.054, H -0.048 ± 0.05, F -0.189 ± 0.055, G -0.009 ± 0.026, C -0.034 ± 0.047, T -0.052 ± 0.036, Q -0.006 ± 0.041, N 0.047 ± 0.049
A48: N -0.086 ± 0.054, I 0.005 ± 0.057, K 0.003 ± 0.038, M 0.02 ± 0.041, S -0.035 ± 0.031, V -0.015 ± 0.032, D 0.077 ± 0.045, T 0.013 ± 0.038, W -0.124 ± 0.034, G 0.002 ± 0.027, E 0.021 ± 0.034, P -0.042 ± 0.037, R -0.018 ± 0.027, F -0.01 ± 0.051, C 0.053 ± 0.046
